Earlier results on one substance are cited in patent publication US12564623B2, “Methods and compositions for treating cancer” (The University of Chicago, priority 2017, dated 2026).

The series addresses T1, CD95 (Homo sapiens, UniProt P25445).
T1 sequence (P25445 26-335): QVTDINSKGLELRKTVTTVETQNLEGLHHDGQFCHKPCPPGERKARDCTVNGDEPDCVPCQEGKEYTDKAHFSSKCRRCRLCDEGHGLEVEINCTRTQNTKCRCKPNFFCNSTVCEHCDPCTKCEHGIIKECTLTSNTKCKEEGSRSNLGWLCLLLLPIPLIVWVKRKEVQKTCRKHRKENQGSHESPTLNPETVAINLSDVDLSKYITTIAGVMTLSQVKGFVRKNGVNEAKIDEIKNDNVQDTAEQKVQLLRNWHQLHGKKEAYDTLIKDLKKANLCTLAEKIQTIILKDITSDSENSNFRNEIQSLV
The following applies: Strand et al., Oncogene, 2004; cited from earlier work.

Consider “MMP7: protease previously shown to cleave the extracellular N-terminal domain of CD95”, for which the “cleavage of CD95” value is “cleave the extracellular N-terminal domain of CD95”.
